Biological target: T1, canine NGF tagged at the C-terminus with the Flag tag (canine, UniProt A0A8I3PYI3 122-241)
T1 construct: mature; Expressed with baculovirus technology; also called feline NGF (processed form identical)
Experiment: SPR off-rate screen, Fab-SASA on BSA chip

T1 sequence (A0A8I3PYI3 entry or part of it): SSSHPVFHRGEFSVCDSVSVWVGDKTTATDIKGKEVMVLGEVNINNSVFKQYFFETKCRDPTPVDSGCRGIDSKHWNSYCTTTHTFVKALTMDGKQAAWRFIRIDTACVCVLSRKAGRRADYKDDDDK

Row | Binder | Kd [nM] | Ratio WT-kd/clone-kd | koff [s⁻¹] | kon [M⁻¹ s⁻¹]
1 | felinized clone 101 Fab-SASA variant S56D (VL) (Fab, V domains shown, not shown: small tags and cut ends) VH: DVQLVESGGDLVKPGGSLRLTCVASGLSLTSSSMSWVRQAPGKGLQWVSTIYSNGGTYYTDSVKGRFTISKDNAENTLYLQMNNLKTEDTATYYCASIYYYDADYLHWYFDFWGQGALVTVSS VL: EIQMTQSPTSLSASVGDRVTITCRASEGISNNLSWYQQTPGKAPKLLIYATSNLHDGVPSRFSGSGSGTDFTLTISSLQPEDFATYYCQQGYKWPLTFGGGTKLEITR | 2.03 | 1.25 | 0.000755 | 372000
2 | felinized clone 101 Fab-SASA variant S62D (VH) (Fab, V domains shown, not shown: small tags and cut ends) VH: DVQLVESGGDLVKPGGSLRLTCVASGLSLTSSSMSWVRQAPGKGLQWVSTIYSNGGTYYTDDVKGRFTISKDNAENTLYLQMNNLKTEDTATYYCASIYYYDADYLHWYFDFWGQGALVTVSS VL: EIQMTQSPTSLSASVGDRVTITCRASEGISNNLSWYQQTPGKAPKLLIYATSNLHSGVPSRFSGSGSGTDFTLTISSLQPEDFATYYCQQGYKWPLTFGGGTKLEITR | 1.86 | 1.68 | 0.00056 | 301000
3 | felinized clone 101 Fab-SASA variant S97T (VH) (Fab, V domains shown, not shown: small tags and cut ends, Fab-SASA in conditioned medium) VH: DVQLVESGGDLVKPGGSLRLTCVASGLSLTSSSMSWVRQAPGKGLQWVSTIYSNGGTYYTDSVKGRFTISKDNAENTLYLQMNNLKTEDTATYYCATIYYYDADYLHWYFDFWGQGALVTVSS VL: EIQMTQSPTSLSASVGDRVTITCRASEGISNNLSWYQQTPGKAPKLLIYATSNLHSGVPSRFSGSGSGTDFTLTISSLQPEDFATYYCQQGYKWPLTFGGGTKLEITR | 1.88 | 1.32 | 0.000716 | 380000
4 | felinized clone 101 Fab-SASA variant T30N (VH) (Fab, V domains shown, not shown: small tags and cut ends) VH: DVQLVESGGDLVKPGGSLRLTCVASGLSLNSSSMSWVRQAPGKGLQWVSTIYSNGGTYYTDSVKGRFTISKDNAENTLYLQMNNLKTEDTATYYCASIYYYDADYLHWYFDFWGQGALVTVSS VL: EIQMTQSPTSLSASVGDRVTITCRASEGISNNLSWYQQTPGKAPKLLIYATSNLHSGVPSRFSGSGSGTDFTLTISSLQPEDFATYYCQQGYKWPLTFGGGTKLEITR | 2.12 | 1.34 | 0.000704 | 333000
5 | felinized clone 101 Fab-SASA variant S56E (VL) (Fab, V domains shown, not shown: small tags and cut ends) VH: DVQLVESGGDLVKPGGSLRLTCVASGLSLTSSSMSWVRQAPGKGLQWVSTIYSNGGTYYTDSVKGRFTISKDNAENTLYLQMNNLKTEDTATYYCASIYYYDADYLHWYFDFWGQGALVTVSS VL: EIQMTQSPTSLSASVGDRVTITCRASEGISNNLSWYQQTPGKAPKLLIYATSNLHEGVPSRFSGSGSGTDFTLTISSLQPEDFATYYCQQGYKWPLTFGGGTKLEITR | 2.19 | 1.17 | 0.000809 | 370000
6 | felinized clone 101 Fab-SASA variant S56T (VL) (Fab, V domains shown, not shown: small tags and cut ends) VH: DVQLVESGGDLVKPGGSLRLTCVASGLSLTSSSMSWVRQAPGKGLQWVSTIYSNGGTYYTDSVKGRFTISKDNAENTLYLQMNNLKTEDTATYYCASIYYYDADYLHWYFDFWGQGALVTVSS VL: EIQMTQSPTSLSASVGDRVTITCRASEGISNNLSWYQQTPGKAPKLLIYATSNLHTGVPSRFSGSGSGTDFTLTISSLQPEDFATYYCQQGYKWPLTFGGGTKLEITR | 1.99 | 1.32 | 0.000714 | 358000
7 | felinized clone 101 Fab-SASA variant T60E (VH) (Fab, V domains shown, not shown: small tags and cut ends) VH: DVQLVESGGDLVKPGGSLRLTCVASGLSLTSSSMSWVRQAPGKGLQWVSTIYSNGGTYYEDSVKGRFTISKDNAENTLYLQMNNLKTEDTATYYCASIYYYDADYLHWYFDFWGQGALVTVSS VL: EIQMTQSPTSLSASVGDRVTITCRASEGISNNLSWYQQTPGKAPKLLIYATSNLHSGVPSRFSGSGSGTDFTLTISSLQPEDFATYYCQQGYKWPLTFGGGTKLEITR | 2.38 | 1.38 | 0.000683 | 287000
8 | felinized clone 101 Fab-SASA variant Y58D (VH) (Fab, V domains shown, not shown: small tags and cut ends) VH: DVQLVESGGDLVKPGGSLRLTCVASGLSLTSSSMSWVRQAPGKGLQWVSTIYSNGGTDYTDSVKGRFTISKDNAENTLYLQMNNLKTEDTATYYCASIYYYDADYLHWYFDFWGQGALVTVSS VL: EIQMTQSPTSLSASVGDRVTITCRASEGISNNLSWYQQTPGKAPKLLIYATSNLHSGVPSRFSGSGSGTDFTLTISSLQPEDFATYYCQQGYKWPLTFGGGTKLEITR | 1.47 | 1.68 | 0.000562 | 381000
9 | felinized clone 101 Fab-SASA variant T60S (VH) (Fab, V domains shown, not shown: small tags and cut ends) VH: DVQLVESGGDLVKPGGSLRLTCVASGLSLTSSSMSWVRQAPGKGLQWVSTIYSNGGTYYSDSVKGRFTISKDNAENTLYLQMNNLKTEDTATYYCASIYYYDADYLHWYFDFWGQGALVTVSS VL: EIQMTQSPTSLSASVGDRVTITCRASEGISNNLSWYQQTPGKAPKLLIYATSNLHSGVPSRFSGSGSGTDFTLTISSLQPEDFATYYCQQGYKWPLTFGGGTKLEITR | 1.76 | 1.65 | 0.000573 | 325000
10 | felinized clone 101 Fab-SASA variant S97Q (VH) (Fab, V domains shown, not shown: small tags and cut ends, Fab-SASA in conditioned medium) VH: DVQLVESGGDLVKPGGSLRLTCVASGLSLTSSSMSWVRQAPGKGLQWVSTIYSNGGTYYTDSVKGRFTISKDNAENTLYLQMNNLKTEDTATYYCAQIYYYDADYLHWYFDFWGQGALVTVSS VL: EIQMTQSPTSLSASVGDRVTITCRASEGISNNLSWYQQTPGKAPKLLIYATSNLHSGVPSRFSGSGSGTDFTLTISSLQPEDFATYYCQQGYKWPLTFGGGTKLEITR | 1.36 | 2.34 | 0.000403 | 297000
11 | felinized clone 101 Fab-SASA variant S97M (VH) (Fab, V domains shown, not shown: small tags and cut ends) VH: DVQLVESGGDLVKPGGSLRLTCVASGLSLTSSSMSWVRQAPGKGLQWVSTIYSNGGTYYTDSVKGRFTISKDNAENTLYLQMNNLKTEDTATYYCAMIYYYDADYLHWYFDFWGQGALVTVSS VL: EIQMTQSPTSLSASVGDRVTITCRASEGISNNLSWYQQTPGKAPKLLIYATSNLHSGVPSRFSGSGSGTDFTLTISSLQPEDFATYYCQQGYKWPLTFGGGTKLEITR | 1.75 | 2.02 | 0.000466 | 266000
12 | felinized clone 101 Fab-SASA variant T30R (VH) (Fab, V domains shown, not shown: small tags and cut ends) VH: DVQLVESGGDLVKPGGSLRLTCVASGLSLRSSSMSWVRQAPGKGLQWVSTIYSNGGTYYTDSVKGRFTISKDNAENTLYLQMNNLKTEDTATYYCASIYYYDADYLHWYFDFWGQGALVTVSS VL: EIQMTQSPTSLSASVGDRVTITCRASEGISNNLSWYQQTPGKAPKLLIYATSNLHSGVPSRFSGSGSGTDFTLTISSLQPEDFATYYCQQGYKWPLTFGGGTKLEITR | 2.05 | 1.29 | 0.00073 | 357000
13 | felinized clone 101 Fab-SASA variant T60H (VH) (Fab, V domains shown, not shown: small tags and cut ends) VH: DVQLVESGGDLVKPGGSLRLTCVASGLSLTSSSMSWVRQAPGKGLQWVSTIYSNGGTYYHDSVKGRFTISKDNAENTLYLQMNNLKTEDTATYYCASIYYYDADYLHWYFDFWGQGALVTVSS VL: EIQMTQSPTSLSASVGDRVTITCRASEGISNNLSWYQQTPGKAPKLLIYATSNLHSGVPSRFSGSGSGTDFTLTISSLQPEDFATYYCQQGYKWPLTFGGGTKLEITR | 1.8 | 1.68 | 0.000561 | 312000
14 | felinized clone 101 Fab-SASA variant Y52W (VH) (Fab, V domains shown, not shown: small tags and cut ends) VH: DVQLVESGGDLVKPGGSLRLTCVASGLSLTSSSMSWVRQAPGKGLQWVSTIWSNGGTYYTDSVKGRFTISKDNAENTLYLQMNNLKTEDTATYYCASIYYYDADYLHWYFDFWGQGALVTVSS VL: EIQMTQSPTSLSASVGDRVTITCRASEGISNNLSWYQQTPGKAPKLLIYATSNLHSGVPSRFSGSGSGTDFTLTISSLQPEDFATYYCQQGYKWPLTFGGGTKLEITR | 1.5 | 1.45 | 0.000651 | 434000
15 | felinized clone 101 Fab-SASA variant Y99F (VH) (Fab, V domains shown, not shown: small tags and cut ends) VH: DVQLVESGGDLVKPGGSLRLTCVASGLSLTSSSMSWVRQAPGKGLQWVSTIYSNGGTYYTDSVKGRFTISKDNAENTLYLQMNNLKTEDTATYYCASIFYYDADYLHWYFDFWGQGALVTVSS VL: EIQMTQSPTSLSASVGDRVTITCRASEGISNNLSWYQQTPGKAPKLLIYATSNLHSGVPSRFSGSGSGTDFTLTISSLQPEDFATYYCQQGYKWPLTFGGGTKLEITR | 1.46 | 2.01 | 0.000469 | 321000
16 | felinized clone 101 Fab-SASA variant T60D (VH) (Fab, V domains shown, not shown: small tags and cut ends) VH: DVQLVESGGDLVKPGGSLRLTCVASGLSLTSSSMSWVRQAPGKGLQWVSTIYSNGGTYYDDSVKGRFTISKDNAENTLYLQMNNLKTEDTATYYCASIYYYDADYLHWYFDFWGQGALVTVSS VL: EIQMTQSPTSLSASVGDRVTITCRASEGISNNLSWYQQTPGKAPKLLIYATSNLHSGVPSRFSGSGSGTDFTLTISSLQPEDFATYYCQQGYKWPLTFGGGTKLEITR | 1.93 | 1.66 | 0.000567 | 294000
17 | felinized clone 101 Fab-SASA variant S97H (VH) (Fab, V domains shown, not shown: small tags and cut ends) VH: DVQLVESGGDLVKPGGSLRLTCVASGLSLTSSSMSWVRQAPGKGLQWVSTIYSNGGTYYTDSVKGRFTISKDNAENTLYLQMNNLKTEDTATYYCAHIYYYDADYLHWYFDFWGQGALVTVSS VL: EIQMTQSPTSLSASVGDRVTITCRASEGISNNLSWYQQTPGKAPKLLIYATSNLHSGVPSRFSGSGSGTDFTLTISSLQPEDFATYYCQQGYKWPLTFGGGTKLEITR | 1.79 | 1.77 | 0.000533 | 297000
18 | felinized clone 101 Fab-SASA variant S56N (VL) (Fab, V domains shown, not shown: small tags and cut ends) VH: DVQLVESGGDLVKPGGSLRLTCVASGLSLTSSSMSWVRQAPGKGLQWVSTIYSNGGTYYTDSVKGRFTISKDNAENTLYLQMNNLKTEDTATYYCASIYYYDADYLHWYFDFWGQGALVTVSS VL: EIQMTQSPTSLSASVGDRVTITCRASEGISNNLSWYQQTPGKAPKLLIYATSNLHNGVPSRFSGSGSGTDFTLTISSLQPEDFATYYCQQGYKWPLTFGGGTKLEITR | 2.64 | 1.04 | 0.000903 | 341000

Reference: patent US20250011410A1 (INVETX, published 2025)
